Where a chain is given by its changes, count along the chain named. Names may count otherwise. “And” between values parts separate entries of the source, which are not always exact repeats. Equal values may be shown once.
B1: 39B6-ANK IgG4 S228P (antibody, V domains shown)
VH: QVQLVQPGAEVRKPGASVKVSCKASGYRFTSYYIDWVRQAPGQGLEWMGRIDPEDAGTKYAQKFQGRVTMTADTSTSTVYVELSSLRSEDTAVYYCARNKWETVVVGDLMYEYEYWGQGTLVTVSS
VL: DIQMTQSPSSLSASVGDRVTITCQASQSISSYLAWYQQKPGQAPKILIYGASRLKTGVPSRFSGSGSGTSFTLTISSLEPEDAATYYCQQYASVPVTFGQGTKVEIKR
notes: Variant of 39B6-A in IgG4 S228P format; Positions are Kabat-type
B2: LHG-10.6 monoclonal antibody (17H5 mAb), isotype not stated (antibody, V domains shown)
VH: B1 VH with Q1E, V11L, K13N, P14S, A56G, M70F, V79A, K100E, L121Q
VL: DIQMTQSPSSLSASLGDRVTITCQASQSISSYLAWYQQKPGQAPNILIYGASRLKTGVPSRFSGSGSGTSFTLTISGLEAEDAGTYYCQQYASVPVTFGQGTKVELK
B3: LHG10.6 IgG1-N297Q (antibody, V domains shown)
VH: B1 VH with Q1E, V11L, K13N, P14S, A56G, M70F, V79A, K100E, L121Q
VL: B2 VL
B4: 39B6 IgG1-N297Q (antibody, V domains shown)
VH: B1 VH with A56G, K100E
VL: B2 VL with L15V, N45K, G77S, A80P, G84A, L106I
notes: Effector-deficient format hIgG1 N297Q; The second row may be the IgG4 S228P form; Both rows are written here as printed
B5: 39B6-AVE IgG4 S228P (antibody, V domains shown)
VH: B1 VH with N99V, K100E
VL: B1 VL
notes: as for B1
B6: 39B6-AYE (ARGX-115), IgG4 S228P (antibody, V domains shown)
VH: B1 VH with N99Y, K100E
VL: B1 VL
B7: 39B6-ANR IgG4 S228P (antibody, V domains shown)
VH: B1 VH with K100R
VL: B1 VL
notes: as for B1
B8: Fab 39A5 (Fab, V domains shown)
VH: QVQLVQPGAELRNPGASVKVSCKASGYRFTSYYIDWVRQAPGQGLEWMGRIDPEDGGTKYAQKFQGRVTFTRDTSTSTVYMELSSLRSEDTAVYYCARNEWETVVVGDLMYEYEYWGQGTLVT
VL: B2 VL with N45K, I46L, S70D, G77S, E79Q, A80P, G84A, L106I
notes: Germlined Fab with human CH1 and Cκ (pCB13), tested as periplasmic extract

Legend:
[1] = target: T1, human GARP-TGF-β1 complex (recombinant complex of human GARP and latent human TGF-β1) (human, UniProt Q14392 20-627; P01137 30-278; P01137 279-390); assay: SPR Biacore T200, CM5 chip coated with GARP-TGF-β1 complex at 150 RU
T1 construct: also called huGARP-TGF-β1; hGARP-TGF-β1
T1 sequence (Q14392 20-627 limits assumed, chain 1 of 3): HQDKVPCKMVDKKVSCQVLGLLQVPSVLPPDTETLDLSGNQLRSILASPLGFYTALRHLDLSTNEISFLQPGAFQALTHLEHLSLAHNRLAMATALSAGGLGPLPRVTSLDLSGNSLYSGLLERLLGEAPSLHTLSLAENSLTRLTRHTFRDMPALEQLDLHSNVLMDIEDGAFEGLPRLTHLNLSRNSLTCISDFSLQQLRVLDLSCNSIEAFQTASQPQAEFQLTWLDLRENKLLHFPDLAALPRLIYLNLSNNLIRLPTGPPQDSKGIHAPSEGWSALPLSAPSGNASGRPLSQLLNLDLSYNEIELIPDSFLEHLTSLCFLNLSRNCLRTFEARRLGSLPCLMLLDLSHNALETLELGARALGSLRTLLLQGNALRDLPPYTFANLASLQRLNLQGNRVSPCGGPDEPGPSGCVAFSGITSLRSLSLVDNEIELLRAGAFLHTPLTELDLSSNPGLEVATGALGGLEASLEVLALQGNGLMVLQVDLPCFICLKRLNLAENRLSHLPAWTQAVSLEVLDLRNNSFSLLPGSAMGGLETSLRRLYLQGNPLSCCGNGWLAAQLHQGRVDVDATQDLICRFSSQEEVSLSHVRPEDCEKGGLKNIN
T1 sequence (P01137 30-278 limits assumed, chain 2 of 3): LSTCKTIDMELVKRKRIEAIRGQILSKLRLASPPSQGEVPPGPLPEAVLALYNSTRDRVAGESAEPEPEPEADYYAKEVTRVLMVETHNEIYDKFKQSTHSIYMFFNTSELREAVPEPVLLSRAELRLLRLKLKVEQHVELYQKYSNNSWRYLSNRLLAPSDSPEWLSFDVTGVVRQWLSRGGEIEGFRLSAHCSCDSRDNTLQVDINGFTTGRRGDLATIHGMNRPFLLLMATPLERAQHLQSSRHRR
T1 sequence (P01137 279-390 limits assumed, chain 3 of 3): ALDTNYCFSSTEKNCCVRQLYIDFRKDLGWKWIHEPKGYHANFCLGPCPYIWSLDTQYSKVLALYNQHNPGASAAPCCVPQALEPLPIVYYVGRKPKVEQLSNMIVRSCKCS
Method: (§1) The affinity of all antibodies (including 39B6-A) for GARP-TGF-β1 was tested by BiacoreT200 using a CM5 chip coated with GARP-TGF-β1 complex at 150RU (Table 17) or coated with the antibodies at 200RU (Table 17)

[2] = target: T1, human GARP-TGF-β1 complex (recombinant …); assay: SPR Biacore T200, CM5 chip coated with the antibody at 200 RU, complex in solution
Method: as §1

[3] = target: T1, human GARP-TGF-β1 complex (recombinant …); assay: SPR Biacore 3000, chip ~4000 RU hGARP-TGF-β; slope vs -20°C reference (=100%); sample 0 d, 5°C arm
Method: (§2) From the intermediate concentration of all samples at 1 mg/ml described above, an extra 1/250 dilution was done for SPR analysis to yield a final concentration of 4 μg/ml. This 1/250 dilution took place for all conditions in two steps: a) 5 μl (1 mg/ml)+120 μl HBS-EP (SPR buffer) and b) an extra 10× dilution (15 μl+135 μl HBS-EP). For each antibody and each time point, a separate standard curve was prepared, starting from a −80° C. frozen sample. This was analyzed together with the stability samples to determine the slope of each curve after general fitting of the standards. These slopes were used to calculate the percent activity of the stability samples by setting the reference sample at 100%.
(§3) To determine the target binding activity in Biacore, a CM5 chip was coated with ˜4000 RU human GARP-TGF-β complex. Flow was set to 30 μl/min with a “kinject” injection mode and two regeneration injections (1 mM NaCl, 2.5 mM glycine pH 1.5) with a 5 min interval.
(§4) Open the curves in the BIAEVAL program and select value ‘2-1’ (1: blank, 2 hGARP-TGF-β1) [0263] Select one curve at the time for plot overlay [0264] Delete the regeneration part of the curve [0265] Select the baseline just before the injection and transform the Y-axis for ‘zero at median of selection’ [0266] Select ‘General Fit’, starting from 120 sec after injecting and ending at 155 sec [0267] Plot the standards in Excel and determine the slope of the curve for each antibody [0268] These values are converted to a percent activity by setting the reference (sample stored at −20° C.) at 100%

[4] = target: T1, human GARP-TGF-β1 complex (recombinant …); assay: SPR Biacore 3000, chip ~4000 RU hGARP-TGF-β; slope vs -20°C reference (=100%); sample 0 d, 37°C arm
Method: as §2, §3, §4

[5] = target: T1, human GARP-TGF-β1 complex (recombinant …); assay: SPR Biacore 3000, chip ~4000 RU hGARP-TGF-β; slope vs -20°C reference (=100%); sample stored 28 d at 5°C
Method: as §2, §3, §4

[6] = target: T1, human GARP-TGF-β1 complex (recombinant …); assay: SPR Biacore 3000, chip ~4000 RU hGARP-TGF-β; slope vs -20°C reference (=100%); sample stored 56 d at 5°C
Method: as §2, §3, §4

[7] = target: T1, human GARP-TGF-β1 complex (recombinant …); assay: SPR Biacore 3000, chip ~4000 RU hGARP-TGF-β; slope vs -20°C reference (=100%); sample stored 28 d at 37°C
Method: as §2, §3, §4

[8] = target: T1, human GARP-TGF-β1 complex (recombinant …); assay: SPR Biacore 3000, chip ~4000 RU hGARP-TGF-β; slope vs -20°C reference (=100%); sample stored 56 d at 37°C
Method: as §2, §3, §4

[9] = target: T1, human GARP-TGF-β1 complex (recombinant …); assay: SPR, mAb on human GARP-TGF-β1 complex
Description: The five germlined clones reformatted to human IgG1 were produced by transient transfection in HEK 293E cells.

[10] = target: T1, human GARP-TGF-β1 complex (recombinant …); assay: SPR Biacore T200, CM5 chip coated with GARP-TGF-β1 complex at 750 RU
Method: (§5) Clone 39B6 was selected as the lead germlined clone based on its binding characteristics. This antibody was produced in two effector function deficient formats, hlgG1^N297Q and hlgG4^S228P, and stability tests were carried out. Prior to the stability testing, the affinity of the effector deficient 39B6 antibodies for GARP-TGF-β1 was tested by BiacoreT200 using a CM5 chip coated with GARP-TGF-β1 complex at 750RU (Table 14) or coated with the antibodies at 1000RU (Table 15).

[11] = target: T1, human GARP-TGF-β1 complex (recombinant …); assay: SPR Biacore T200, CM5 chip coated with the antibody at 1000 RU, complex in solution
Method: as §5

[12] = target: T2, complex of recombinant GARP and recombinant LAP (human, UniProt Q14392 20-627; P01137 30-278); assay: ELISA in two orientations: GARP coated and LAP captured; or ARGX-115 coated, GARP then LAP added, detected with anti-LAP-HRP
T2 construct: Formed on the ELISA plate; It contains no mature TGF-β; also called GARP-LAP complex
T2 sequence (Q14392 20-627 limits assumed, chain 1 of 2): as the sequence (Q14392 20-627 limits assumed, chain 1 of 3) above
T2 sequence (P01137 30-278 limits assumed, chain 2 of 2): as the sequence (P01137 30-278 limits assumed, chain 2 of 3) above
Method: For ELISA plates coated with GARP, a complex with either full-length latent TGF-β (including both the LAP and mature TGF-β regions) or a complex with recombinant LAP was allowed to form by the addition of the relevant recombinant protein. […] In contrast, an anti-LAP antibody was able to bind to the GARP-LAP complex.
An ELISA plate was coated with recombinant GARP (1 μg/mL O/N 4° C.), blocked with blocking agent (casein-PBS), and LAP (5 μg/mL) was captured on the coated recombinant GARP. LAP binding was detected with anti-LAP-HRP.

[13] = target: T1, human GARP-TGF-β1 complex (recombinant …); assay: SPR, Fab in periplasmic extract, off-rate on human GARP-TGF-β1 complex
Method: Masterplates were picked from selection round 2, 3, 4, 5 and 6 (48 clones for each round). Periplasmic extracts were prepared and off-rates were determined by SPR. All clones were DNA-sequenced and amino acid sequences were deduced thereof. The off-rates of these clones were measured as periplasmic extracts on SPR, and compared to the off-rate of Fab 17H5.

Binder	Fold-difference (KD vs 39B6-A) [1] [fold]	Kd [1] [nM]	Fold-difference (KD vs 39B6-A) [2] [fold]	Kd [2] [nM]	Activity on Biacore (%) [3] [%]	Activity on Biacore (%) [4] [%]	Activity on Biacore (%) [5] [%]	Activity on Biacore (%) [6] [%]	Activity on Biacore (%) [7] [%]	Activity on Biacore (%) [8] [%]	Kd [9] [nM]	fold difference (KD vs 17H5) [9] [fold]	Fold-difference (KD vs LHG10.6) [10] [fold]	Kd [10] [nM]	Fold-difference (KD vs LHG10.6) [11] [fold]	Kd [11]	binding result [12]	koff [13] [s⁻¹]
B1	0.9	0.88	1.5	2.02	130	130	101	101	77.8	62.4								
B2	0.5	0.517									0.1	1						
B3													1	0.819	1	0.534 nM		
B4																1.23 nM and 1.02 nM		
B5	0.9	0.894	1	1.29	99.5	99.5	99	96.9	68	31.3								
B6	0.8	0.763	1.2	1.62	93.5	93.5	96.7	104	96.1	104							no binding	
B7	0.9	0.884	1.5	1.94	101	101	129	85.4	85.4	46.3								
B8																		0.00019
